Test results from patent publication US20080201790A1 (published 2008).

Columns and labels:
Assay in all cases: GST fusion pull-down on glutathione-Sepharose, anti-MEKK4 immunoblot
[1] = target: T1, GST-Rac (GDP bound) on glutathione-Sepharose (UniProt P08515 1-218 = GST)
T1 construct: Loaded with GDP
Method: (§1) Each GST fusion protein had GTPγs or GDP bound to the Cdc42, Rac or Ras moiety of the fusion protein. Following the incubation the beads were washed extensively and the bound proteins removed in SDS-Laemmli buffer and resolved by SDS-PAGE using 10% acrylamide gels.

[2] = target: T2, GST-Cdc42 (GDP bound) on glutathione-Sepharose (UniProt P60953 1-191)
T2 construct: Loaded with GDP; not shown: glutathione S-transferase fusion partner
Method: as §1

[3] = target: T3, GST fusion protein of Ha-Ras (GDP bound) on glutathione-Sepharose (UniProt P08515 1-218 = GST; P01112 1-189)
T3 construct: also called GST-Ras
Method: as §1

[4] = target: T4, GST fusion protein of Ha-Ras (GTPγS bound) on glutathione-Sepharose (UniProt P08515 1-218 = GST; P01112 1-189)
T4 construct: also called GST-Ras
Method: as §1

T1 sequence (P08515 whole entry): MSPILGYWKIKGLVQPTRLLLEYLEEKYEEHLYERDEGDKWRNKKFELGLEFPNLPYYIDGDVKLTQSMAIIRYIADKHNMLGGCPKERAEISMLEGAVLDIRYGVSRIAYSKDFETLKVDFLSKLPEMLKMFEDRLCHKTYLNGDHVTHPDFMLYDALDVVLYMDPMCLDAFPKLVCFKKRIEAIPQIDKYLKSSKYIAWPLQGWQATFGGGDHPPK
T2 sequence (P60953 whole entry, the tested form may be a part): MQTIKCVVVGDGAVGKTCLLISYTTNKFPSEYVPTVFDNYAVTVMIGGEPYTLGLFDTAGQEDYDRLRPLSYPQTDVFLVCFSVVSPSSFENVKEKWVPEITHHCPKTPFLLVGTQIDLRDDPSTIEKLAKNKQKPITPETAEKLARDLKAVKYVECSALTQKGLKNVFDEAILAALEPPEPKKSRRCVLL
T4 sequence (P08515 1-218, tags or fused parts left off): as the sequence (P08515 whole entry) above
T3 sequence (P08515 1-218, tags or fused parts left off): as the sequence (P08515 whole entry) above

B1: MEKK4 from a Cos cell transient transfection (enzyme)
chain: MRDAIAEPVPPPALADTPAAAMEELRPAPPPQPEPDPECCPAARQECMLGESARKSMESDPEDFSDETNTETLYGTSPPSTPRQMKRLSAKHQRNSAGRPASRSNLKEKMNTPSQSPHKDLGKGVETVEEYSYKQEKKIRATLRTTERDHKKNAQCSFMLDSVAGSLPKKSIPDVDLNKPYLSLGCSNAKLPVSMPMPIARTARQTSRTDCPADRLKFFETLRLLLKLTSVSKKKDREQRGQENTAAFWFNRSNELIWLELQAWHAGRTINDQDLFLYTARQAIPDIINEILTFKVNYGSIAFSSNGAGFNGPLVEGQCRTPQETNRVGCSSYHEHLQRQRVSFEQVKRIMELLEYMEALYPSLQALQKDYERYAAKDFEDRVQALCLWLNITKDLNQKLRIMGTVLGIKNLSDIGWPVFEIPSPRPSKGYEPEDEVEDTEVELRELESGTEESDEEPTPSPRVPELRLSTDTILDSRSQGCVSRKLERLESEEDSIGWGTADCGPEASRHCLTSIYRPFVDKALKQMGLRKLILRLHKLMNGSLQRARVALVKDDRPVEFSDFPGPMWGSDYVQLSGTPPSSEQKCSAVSWEELRAMDLPSFEPAFLVLCRVLLNVIHECLKLRLEQRPAGEPSLLSIKQLVRECKEVLKGGLLMKQYYQFMLQEVLGGLEKTDCNMDAFEEDLQKMLMVYFDYMRSWIQMLQQLPQASHSLKNLLEEEWNFTKEITHYIRGGEAQAGKLFCDIAGMLLKSTGSFLESGLQESCAELWTSADDNGAADELRRSVIEISRALKELFHEARERASKALGFAKMLRKDLEIAAEFVLSASARELLDALKAKQYVKVQIPGLENLHVFVPDSLAEEKKIILQLLNAATGKDCSKDPDDVFMDAFLLLTKHGDRARDSEDGWGTWEARAVKIVPQVETVDTLRSMQVDNLLLVVMESAHLVLQRKAFQQSIEGLMTVRHEQTSSQPIIAKGLQQLKNDALELCNRISDAIDRVDHMFTLEFDAEVEESESATLQQYYREAMIQGYNFGFEYHKEVVRLMSGEFRQKIGDKYISFAQKWMNYVLTKCESGRGTRPRWATQGFDFLQAIEPAFISALPEDDFLSLQALMNECIGHVIGKPHSPVTAIHRNSPRPVKVPRCHSDPPNPHLIIPTPEGFSTRSVPSDARTHGNSVAAAAAVRAAATTAAGRPGPGGGDSVPAKPVNTAPDTRGSSVPENDRLASIAAELQFRSLSRHSSPTEERDEPAYPRSDSSGSTRRSWELRTLISQTKDSASKQGPIEAIQKSVRLFEERRYREMRRKNIIGQVCDTPKSYDNVMHVGLRKVTFKWQRGNKIGEGQYGKVYTCISVDTGELMAMKEIRFQPNDHKTIKETADELKIFEGIKHPNLVRYFGVELHREEMYIFMEYCDEGTLEEVSRLGLQEHVIRLYTKQITVAINVLHEHGIVHRDIKGANIFLTSSGLIKLGDFGCSVKLKNNAQTMPGEVNSTLGTAAYMAPEVITRAKGEGHGRAADIWSLGCVVIEMVTGKRPWHEYEHNFQIMYKVGMGHKPPIPERLSPEGKAFLSHCLESDPKIRWTASQLLDHAFVKVCTDEE
notes: also called MEKK4.2
[1]
  percent of the MEKK4 bound in the presence of GTPγS: < 10%
[2]
  percent of the MEKK4 bound in the presence of GTPγS: < 10%

B2: recombinant MEKK4 protein expressed in E. coli, residues 1261-1597 of the full length protein (enzyme)
chain: RRSWELRTLISQTKDSASKQGPIEAIQKSVRLFEERRYREMRRKNIIGQVCDTPKSYDNVMHVGLRKVTFKWQRGNKIGEGQYGKVYTCISVDTGELMAMKEIRFQPNDHKTIKETADELKIFEGIKHPNLVRYFGVELHREEMYIFMEYCDEGTLEEVSRLGLQEHVIRLYTKQITVAINVLHEHGIVHRDIKGANIFLTSSGLIKLGDFGCSVKLKNNAQTMPGEVNSTLGTAAYMAPEVITRAKGEGHGRAADIWSLGCVVIEMVTGKRPWHEYEHNFQIMYKVGMGHKPPIPERLSPEGKAFLSHCLESDPKIRWTASQLLDHAFVKVCTDEE
notes: No tag is stated; also called truncated recombinant MEKK4
[3]
  binding result: no binding
[1]
  percent of the MEKK4 bound in the presence of GTPγS: < 10%
[4]
  binding result: no binding
[2]
  percent of the MEKK4 bound in the presence of GTPγS: < 10%
